Assay results as given in paper PMC9769368 (2022).

T1: AAVGo.1 virus-like particles (goat adeno-associated virus capsid, without DNA genome) (goat adeno-associated virus AAVGo.1)
T1 chain 1: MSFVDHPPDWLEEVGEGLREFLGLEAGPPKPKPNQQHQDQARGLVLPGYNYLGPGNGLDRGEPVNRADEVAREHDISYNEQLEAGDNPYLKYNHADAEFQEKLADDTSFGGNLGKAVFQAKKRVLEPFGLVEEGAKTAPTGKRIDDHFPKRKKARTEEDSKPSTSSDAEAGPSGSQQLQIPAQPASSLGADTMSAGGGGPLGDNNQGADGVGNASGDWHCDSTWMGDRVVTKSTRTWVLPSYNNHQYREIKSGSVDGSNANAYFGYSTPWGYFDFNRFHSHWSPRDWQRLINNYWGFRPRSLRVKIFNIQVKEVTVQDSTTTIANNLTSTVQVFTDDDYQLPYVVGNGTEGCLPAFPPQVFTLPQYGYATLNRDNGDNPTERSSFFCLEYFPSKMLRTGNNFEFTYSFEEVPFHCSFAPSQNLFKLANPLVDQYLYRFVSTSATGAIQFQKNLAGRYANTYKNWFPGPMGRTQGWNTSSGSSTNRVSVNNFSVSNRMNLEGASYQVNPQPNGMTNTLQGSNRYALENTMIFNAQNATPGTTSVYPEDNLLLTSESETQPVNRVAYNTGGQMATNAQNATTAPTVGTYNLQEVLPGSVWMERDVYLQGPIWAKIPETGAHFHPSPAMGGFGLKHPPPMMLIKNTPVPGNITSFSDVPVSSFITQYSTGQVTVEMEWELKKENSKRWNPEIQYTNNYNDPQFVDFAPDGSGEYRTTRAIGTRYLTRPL
T1 chain 2: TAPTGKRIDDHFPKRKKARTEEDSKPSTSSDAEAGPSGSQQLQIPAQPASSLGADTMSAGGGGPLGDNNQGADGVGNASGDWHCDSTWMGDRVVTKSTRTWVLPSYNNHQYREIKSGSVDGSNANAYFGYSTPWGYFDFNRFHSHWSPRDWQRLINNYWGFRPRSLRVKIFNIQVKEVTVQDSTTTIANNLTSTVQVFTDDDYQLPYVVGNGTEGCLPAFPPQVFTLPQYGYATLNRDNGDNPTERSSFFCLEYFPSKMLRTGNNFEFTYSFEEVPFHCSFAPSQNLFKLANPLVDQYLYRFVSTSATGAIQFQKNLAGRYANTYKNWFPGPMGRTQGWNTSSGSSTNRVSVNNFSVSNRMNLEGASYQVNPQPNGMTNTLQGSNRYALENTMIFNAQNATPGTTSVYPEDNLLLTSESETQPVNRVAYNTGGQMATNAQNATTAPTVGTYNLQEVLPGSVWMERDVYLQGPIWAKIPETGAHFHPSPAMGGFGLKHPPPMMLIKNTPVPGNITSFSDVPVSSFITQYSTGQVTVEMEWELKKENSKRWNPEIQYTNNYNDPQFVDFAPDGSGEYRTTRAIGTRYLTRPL
T1 chain 3: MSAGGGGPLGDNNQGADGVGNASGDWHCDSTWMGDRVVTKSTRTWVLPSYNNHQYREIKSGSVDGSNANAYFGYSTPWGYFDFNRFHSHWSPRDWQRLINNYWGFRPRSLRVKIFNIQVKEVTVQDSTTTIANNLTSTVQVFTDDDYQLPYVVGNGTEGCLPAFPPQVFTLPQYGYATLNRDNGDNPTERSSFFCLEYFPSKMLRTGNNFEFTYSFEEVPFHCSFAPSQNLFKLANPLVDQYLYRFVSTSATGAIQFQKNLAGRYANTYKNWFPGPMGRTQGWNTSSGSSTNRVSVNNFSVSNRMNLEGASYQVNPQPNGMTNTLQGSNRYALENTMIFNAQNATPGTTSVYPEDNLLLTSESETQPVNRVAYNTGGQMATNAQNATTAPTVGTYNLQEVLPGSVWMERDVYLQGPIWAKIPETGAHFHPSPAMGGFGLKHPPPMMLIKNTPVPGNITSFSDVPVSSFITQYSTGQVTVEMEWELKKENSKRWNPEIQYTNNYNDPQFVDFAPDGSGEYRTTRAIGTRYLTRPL

B1: His6PKD12, fragment of human AAV receptor (AAVR) with PKD domains 1 and 2 (domain or fragment)
chain: MASHHHHHHVSAGESVQITLPKNEVQLNAYVLQEPPKGETYTYDWQLITHPRDYSGEMEGKHSQILKLSKLTPGLYEFKVIVEGQNAHGEGYVNVTVKPEPRKNRPPIAIVSPQFQEISLPTTSTVIDGSQSTDDDKIVQYHWEELKGPLREEKISEDTAILKLSKLVPGNYTFSLTVVDSDGATNSTTANLTVNKAVD
B2: His6PKD1, fragment of human AAV receptor (AAVR) with PKD domain 1 (domain or fragment)
chain: SAGESVQITLPKNEVQLNAYVLQEPPKGETYTYDWQLITHPRDYSGEMEGKHSQILKLSKLTPGLYEFKVIVEGQNAHGEGYVNVTVKPE

What was measured:
Experiment in all cases: ELISA
[1] = target: AAV5 virus-like particles (adeno-associated virus 5, UniProt Q9YIJ1 2-724)
[2] = target: AAV2 virus-like particles (adeno-associated virus 2)
[3] = target: T1, AAVGo.1 virus-like particles (goat …)

| Binder | EC50 [1] | EC50 [2] | EC50 [3] |
| --- | --- | --- | --- |
| B1 | 280 nM | 340 nM | 120 nM |
| B2 | 400 nM |  | 140 nM |
